From the supplement of paper PMC9170038

Each sequence was assayed on MS2 coat protein (assay: apparent KD of MS2 coat protein, switch ON state; designed switch direction (-1 OFF switch, 1 ON switch): 1; higher = weaker reporter binding). Conditions: FMN input: 0 or 200 uM; Eterna round: R93 (includes R88 designs).
Procedure, shortened: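 Designed RNA switches were made by on-chip transcription from Illumina sequencing clusters and then titrated with SNAP-549-labelled MS2 coat protein. Twofold steps ran from 0.7 or 1.5 nM to 3 µM, each lasting 0.8–1.5 h early and 10–20 min late, in 100 mM Tris-HCl pH 7.5, 80 mM KCl, 4 mM MgCl2, without or with constant ligand. Apparent KD is the per-design median of normalised cluster binding-curve fits.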

“CGAGUACAUGAGGAUCACCCAUGUUAUGAAUUGUCAGGAUAUGGGUAGAGGUGACAUGCGCCAGAAGGGACGUCUG [JR_SS001_Sub1005]” was tested. Which “apparent KD of MS2 coat protein” value did it give?
Its value is 194 nM.

With “AACAAUCUAUCUGAGGAUAUCAUGUAAAAGACAUGAGGAUCACCCAUGUUGCAGGAAACUGCUCAUGAGAAGGCAGAUAGAUUGA [SS2: 1125]” as the sequence, how does the “apparent KD of MS2 coat protein” value read?
Its value is 12.8 nM.

For “ACGGUCAAGUGUGAGGAUAUCCAGGCUCCCACAUGAGGAUCACCCAUGUCUUAAAGGGCGUAAAGGGAGAAGGUACGAACGCCAC [Vesolees]”, which “apparent KD of MS2 coat protein” value is on record?
The value was 33.2 nM.

For “CAUCAUGCGCCUAAGGAUAUGUCUCACAAGACAUGAGGAUCACCCAUGUAGAAUAAAUAAAUGAUGCAGAAGGUGGAGCGCAUAC [Beusesce]”, which “apparent KD of MS2 coat protein” value is on record?
Its value is 61.9 nM.

For “AUAAAUAAAAGAGAGGAUAUCCAAAAUAAAACAUGAGGAUCACCCAUGUAAAAUAAAAUAAAAUGGGAGAAGGCUCAAAAUAAAU [SS2 M 2]”, which “apparent KD of MS2 coat protein” value is on record?
The value was 21.6 nM.

Which “apparent KD of MS2 coat protein” value does the source give for “AACAAUCUAUCUGAGGAUAUAUGUCAAAAGACAUGAGGAUCACCCAUGUAAAAACAUGAAAAAACAUAGAAGGCAGAUAGAUUGA [SS2: 1134]” here?
The value was 41.5 nM.

With “AGAAAACAUGAGGAUCACCCAUGUGACAAUAUGGGAGGAUAUACAAAGACGAAAGUCGAAGUAGAAGGCCUAAAGA [Garnet 52]” as the sequence, how does the “apparent KD of MS2 coat protein” value read?
Its value is 26.1 nM.

For “UGUUCGAGUAGUGAGGAUAUUCAUGGGCCCACAUGAGGAUCACCCAUGUAAAGGACCGGGCCGAAGGAGAAGGCGCGUAAAAUUA [Esenan]”, which “apparent KD of MS2 coat protein” value is on record?
Its value is 28.9 nM.

Which “apparent KD of MS2 coat protein” value does the source give for “AAAACACAUGAGGAUCACCCAUGUAUCUGGACCAUAGGAUAUCCGCACCCACUAAGGCGUGGAGAAGGGUGAGCCC [Antisoorti]” here?
Its value is 160 nM.

Which “apparent KD of MS2 coat protein” value does the source give for “AAAAAAAAAAAUAAGGAUAUGUGAUCGGUGACAUGAGGAUCACCCAUGUAAGGCCUCCGGGACGGGCAGAAGGUAUAAAAAAAAA [Same State2-III]” here?
The value was 491 nM.

With “AUAAAACAUGAGGAUCACCCAUGUAGACACGAUGGAGGAUAUACUAGAUCGAAAGAUCUAGUAGAAGGCCGACGUA [Mat - Same State 1 - JL mod - D95]” as the sequence, how does the “apparent KD of MS2 coat protein” value read?
The value was 18.4 nM.

Which “apparent KD of MS2 coat protein” value does the source give for “AAAAAAAAAUCUCAGGAUAUAGAUUAUAGAACAUGAGGAUCACCCAUGUAGUGAAAGAAGAAAAACUAGAAGGGAGGAAAAAAAAA [Same State 2 #2]” here?
Its value is 48.2 nM.

“AAAUAAAUGACUAAGGAUAUAUUAGAGAAAACAUGAGGAUCACCCAUGUAAUAAUAAAAAGGGUGAUAGAAGGUAGUCAACAAAC [74%, More Paria 4]” was tested. Which “apparent KD of MS2 coat protein” value did it give?
The value was 132 nM.

For “AAAAAAAAUGUGUAGGAUAUCAGUAAAAAUACAUGAGGAUCACCCAUGUUCAAAAAAAAAAAAACUGAGAAGGACACGGAUGGUCC [Design 1]”, which “apparent KD of MS2 coat protein” value is on record?
The value was 35.5 nM.

For “AAAAAACAUGAGGAUCACCCAUGUAAAAUUAUGGGAGGAUAUGGAAACACGAAAGUGAAACCAGAAGGCCUAAAAG [77%, Mat - Mod of Eli, 11]”, which “apparent KD of MS2 coat protein” value is on record?
Its value is 25.1 nM.

Which “apparent KD of MS2 coat protein” value does the source give for “AAUAAACAUGAGGAUCACCCAUGUGGUGGCCCAUGAGGAUAUCCAUGUACAUUGUACACAGGAGAAGGCAUAGCCA [Tioredes]” here?
The value was 119 nM.

“AGAAAACAUGAGGAUCACCCAUGUAGAAAUAUGGGAGGAUAUACAAAGACGAAAGUCAAGGUAGAAGGCCUAAAGA [Mat - Same State 1 - Meechl mod - D124]” was tested. Which “apparent KD of MS2 coat protein” value did it give?
The value was 20 nM.

How did the “apparent KD of MS2 coat protein” value turn out when “AAAUAACAUGAGGAUCACCCAUGUUACAACAAUACAGGAUAUGUGGGUGAAAAUAGCAUGACAGAAGGGUAAUGUA [SameState1 Malc#32]” was run?
The value was 239 nM.

How did the “apparent KD of MS2 coat protein” value turn out when “UUACAACAUGAGGAUCACCCAUGUAAACCCGACUAAGGAUAUGGAGUGAAAGAUAUCAUCCCAGAAGGUAGAAAUA [Istegeisis]” was run?
The value was 48.2 nM.

For “GACAAACAUGAGGAUCACCCAUGUAGAAAUAUGGGAGGAUAUACAAAGACGAAAGUCAAAGUAGAAGGCCUAAAAG [77%, Mat - Mod of Eli - With 1 more C's]”, which “apparent KD of MS2 coat protein” value is on record?
The value was 21.7 nM.

With “AACAAUCUAUCUGAGGAUAUCAUGUCAAAGACAUGAGGAUCACCCAUGUACCAGGAAACUGGAUAUGAGAAGGCAGAUAGAUUGA [SS2: 1119]” as the sequence, how does the “apparent KD of MS2 coat protein” value read?
Its value is 16.1 nM.

For “AGGAAACAUGAGGAUCACCCAUGUAAAAAUAUGGAAGGAUAUGGAAACACGAAAGUGAAACCAGAAGGUUCAAAAA [77%, Mat - Mod of Eli, 22]”, which “apparent KD of MS2 coat protein” value is on record?
Its value is 18.5 nM.

Which “apparent KD of MS2 coat protein” value does the source give for “AAUGAACAUGAGGAUCACCCAUGUUCUAAUAGUUGAGGAUAUGUGGGUGAAAAUAGCACGGCAGAAGGCGAGUGUA [SameState1 Malc#19]” here?
Its value is 101 nM.

With “AAUAAUUAUACGAAGGAUAUCGGUAAUUAGACAUGAGGAUCACCCAUGUAAUAUGGUUAAAUAUUCGAGAAGGUCGAGGGUGAAA [JR_SS002_Sub504]” as the sequence, how does the “apparent KD of MS2 coat protein” value read?
Its value is 336 nM.

For “GAGAAACAUGAGGAUCACCCAUGUAGAAAUAUGGGAGGAUAUACAAAGACGAAAGUCAAAGUAGAAGGCCUAGAAG [77%, Mat - Mod of Eli - With 2 more G's]”, which “apparent KD of MS2 coat protein” value is on record?
The value was 21.9 nM.

Which “apparent KD of MS2 coat protein” value does the source give for “GAAAAACAUGAGGAUCACCCAUGUGAGAAUAUGGGAGGAUAUACAAGGACGAAAGUCAAGGUAGAAGGCCUAAAAG [Mat - Same State 1 - Eli mod - 28]” here?
The value was 34.3 nM.

“GAGAAGAAGAGAGAGGAUAUCCAAAGGAAAACAUGAGGAUCACCCAUGUAAAAGGUAGGAAAUUGGGAGAAGGCUCAAAGGAGGG [salish99-ss2-031]” was tested. Which “apparent KD of MS2 coat protein” value did it give?
Its value is 23.2 nM.

How did the “apparent KD of MS2 coat protein” value turn out when “AGGAAACAUGAGGAUCACCCAUGUAUAAAAAUGGAAGGAUAUACUAAGACGAAAGUCAUAGUAGAAGGUUCAAAAA [76%, Meechl, 9]” was run?
Its value is 13.1 nM.

For “GUGGACAUAGGAUAGGAUAUAUGAAUAAUUACAUGAGGAUCACCCAUGUCCAUUUAUAUGGGAACAUAGAAGGGUUGUAGUUAAC [Mat - Same state - Malcolm Mod - D131]”, which “apparent KD of MS2 coat protein” value is on record?
Its value is 117 nM.

Which “apparent KD of MS2 coat protein” value does the source give for “AAAAAACAUGAGGAUCACCCAUGUAAAAAAAUCGCAGGAUAUAAGGUCGCGAAAGCGACCUUAGAAGGGCGAUCCU [Louisiana 1 - Jieux - Same State 1]” here?
The value was 46.3 nM.

“AAAAAACAUGAGGAUCACCCAUGUGAGAACAUGGGAGGAUAUACAAGGAUGAGAGUCAAGGUAGAAGGCCUAAGAA [Garnet 70]” was tested. Which “apparent KD of MS2 coat protein” value did it give?
The value was 76.1 nM.

“GUGGCCUAGGCACAGGAUAUGUUGCUCGUAACAUGAGGAUCACCCAUGUGCCUAUGAGAUUUAAUGCAGAAGGGUGCACGCCACG [Edbeso]” was tested. Which “apparent KD of MS2 coat protein” value did it give?
Its value is 14.7 nM.

Which “apparent KD of MS2 coat protein” value does the source give for “AAGAAACAUGAGGAUCACCCAUGUAAUAAUAUGGGAGGAUAUACAAGGACAAUAGUCAAGGUAGAAGGCCUAAGAA [Mat - Same State 1 - Meechl mod - D142]” here?
The value was 26.7 nM.

With “AGAAAACAUGAGGAUCACCCAUGUAGGAAUAUGGGAGGAUAUACAAAGACGAAAGUCAGAGUAGAAGGCCUAAGAA [salish99-SS1-087]” as the sequence, how does the “apparent KD of MS2 coat protein” value read?
The value was 24.1 nM.

For “ACAAAACAUGAGGAUCACCCAUGUAUAAAUAUAACAGGAUAUGGGACUGCCGAUUAGGCACCAGAAGGGUUUUCAC [Atearve]”, which “apparent KD of MS2 coat protein” value is on record?
The value was 20.8 nM.

Which “apparent KD of MS2 coat protein” value does the source give for “AUAAAACAUGAGGAUCACCCAUGUAGAAAUAUGGGAGGAUAUACUAGAUCGAAAGAUCUAGUAGAAGGCCUUUAUG [JL Mod of Eli 5]” here?
Its value is 45.4 nM.

How did the “apparent KD of MS2 coat protein” value turn out when “GAGAAACAUGAGGAUCACCCAUGUAGAGAUAUGGGAGGAUAUACAGAGACGAGAGUCAAAGUAGAAGGCCUAGAAG [77%, Mat - Mod of Eli - With 5 more G's]” was run?
The value was 25.5 nM.

“GGGAGACAUGAGGAUCACCCAUGUGAAAACGUGCGAGGAUAUGAAUGGAAACCAUACUGUUCAGAAGGCGUUUGUC [Titus Petronius Secundus]” was tested. Which “apparent KD of MS2 coat protein” value did it give?
The value was 46.5 nM.

With “AAAAGACAUGAGGAUCACCCAUGUAAAAACUUGGGAGGAUAUGCUUGGAAAACAUGCUAUGCAGAAGGCUCUAGUC [SS1 - 14]” as the sequence, how does the “apparent KD of MS2 coat protein” value read?
The value was 78.3 nM.

Which “apparent KD of MS2 coat protein” value does the source give for “CGAAGACAUGAGGAUCACCCAUGUCGUCGUAACAGAGGAUAUGGGAACGCCAAGGGCGCAUCAGAAGGCUGAAAAC [Gediaton]” here?
Its value is 16.2 nM.

How did the “apparent KD of MS2 coat protein” value turn out when “AACAAUCUAUCUGAGGAUAUCAUGUGAAAGACAUGAGGAUCACCCAUGUCGCAGGAAACUGCUCAUGAGAAGGCAGAUAGAUUGA [SS2: 1127]” was run?
The value was 15.6 nM.

For “ACAUGCUGCCGGCAGGAUAUCGCUUGGCGGACAUGAGGAUCACCCAUGUGAGAAAGUCGCGCGCGCGAGAAGGGCCAUGGUAUCAG [SameState2_Neo]”, which “apparent KD of MS2 coat protein” value is on record?
Its value is 89.3 nM.

With “AAUCCAACUAGUCAGGAUAUCAGGCGUAAGACAUGAGGAUCACCCAUGUCCUUAGUACAAGUAACUGAGAAGGGACAGGGCGACC [JR_SS002_Sub410]” as the sequence, how does the “apparent KD of MS2 coat protein” value read?
Its value is 74.9 nM.
